Read-outs that look alike come from different tables or passages of the source.
Tests used:
[1] = test system: IgG molecules present in normal human sera; experiment: Serum response analysis: ELISA of human serum IgG binding to albumin binding polypeptides
Procedure: Each serum sample was tested as a singlet.

[2] = test system: CD3+ CD4+ T cells
[3] = test system: NIH/Swiss mice; experiment: OGTT DOA (oral glucose tolerance test duration of action); type: in vivo, mouse; conditions: 25 nmol/Kg, OGTT at 24 hours post drug administration, 30 minutes post gavage; 4-hr fasted NIH/Swiss mice
Procedure: For example, duration can be performed using an oral glucose tolerance test (OGTT) in which the drug is administered to the subject at a desired time point before the glucose is administered orally(to measure drug duration of action; OGTT DOA) and glucose blood levels are measured (e.g. readily done in mice).
Drug was administered to 4-hr fasted NIH/Swiss mice. […] Blood glucose was measured with a OneTouch® Ultra® (LifeScan, Inc., a Johnson & Johnson Company, Milpitas, Calif.). *p<0.05 vs. vehicle control; ANOVA, Dunnett's test. Glucose lowering as percent lowering compared to vehicle is given (negative value indicates lowering of glucose) at 30 minutes post gavage.

[4] = test system: renal cortical tubular epithelial cells; experiment: Kidney vacuolization histopathology in C57BL6 female mice; type: in vivo, mouse
Procedure: With some drugs, such as some pegylated proteins, undesirable vacuoles can form in cytoplasm of epithelial cells lining the proximal convoluted tubules, which is an undesirable toxicity measure. […] C57BL6 female mice (n=2 cages, 3 mice/cage) were weighed daily 3 hours prior to lights out. Immediately after weighing, on days 0-6 mice were injected subcutaneously with test compound. Mice were sacrificed on day 7 and kidneys submitted for histopathology. […] A positive control compound known to cause vacuole formation was scored as 3.

| Molecule | reactivity with serum IgG (average OD-value and percentage of serum with IgG binding) [1] | number of responding individuals [2] | further results |
| --- | --- | --- | --- |
| CC[C@H](C)[C@H](NC(=O)[C@H](C)NC(=O)[C@H](CC(=O)O)NC(=O)[C@H](CCCCN)NC(=O)[C@H](CC(C)C)NC(=O)[C@H](C)NC(=O)[C@H](CCC(=O)O)NC(=O)[C@@H](NC(=O)CNC(=O)[C@H](CCC(=O)O)NC(=O)[C@@H](NC(=O)[C@@H](NC(=O)[C@H](CCCCN)NC(=O)[C@H](C)NC(=O)[C@H](CCCCN)NC(=O)[C@H](CC(=O)O)NC(=O)[C@@H](NC(=O)[C@H](CC(C)C)NC(=O)[C@H](CCCNC(=N)N)NC(=O)[C@H](CCCCN)NC(=O)[C@H](Cc1ccc(O)cc1)NC(=O)[C@H](Cc1ccccc1)NC(=O)[C@H](CC(=O)O)NC(=O)[C@H](CO)NC(=O)[C@@H](NC(=O)CNC(=O)[C@H](Cc1ccc(O)cc1)NC(=O)[C@H](CCCCN)NC(=O)[C@H](CC(=O)O)NC(=O)[C@H](CC(C)C)NC(=O)[C@H](CCC(=O)O)NC(=O)[C@H](C)NC(=O)[C@H](CC(N)=O)NC(=O)[C@H](C)NC(=O)[C@H](C)NC(=O)[C@H](CCC(=O)O)NC(=O)[C@H](CCCCN)NC(=O)[C@H](C)NC(=O)[C@H](CO)NC(=O)[C@H](C)NC(=O)[C@H](CC(C)C)NC(=O)[C@H](CO)NC(=O)[C@H](CO)NC(=O)CN)C(C)C)[C@@H](C)CC)[C@@H](C)O)C(C)C)C(C)C)C(=O)N[C@@H](CC(C)C)C(=O)N[C@@H](C)C(=O)N[C@@H](C)C(=O)N[C@@H](CC(C)C)C(=O)N1CCC[C@H]1C(=O)O [PEP07844] | highest |  |  |
| CC[C@H](C)[C@H](NC(=O)[C@H](C)NC(=O)[C@H](CC(=O)O)NC(=O)[C@H](CCCCN)NC(=O)[C@H](CC(C)C)NC(=O)[C@H](C)NC(=O)[C@H](CCC(=O)O)NC(=O)[C@@H](NC(=O)CNC(=O)[C@H](CCC(=O)O)NC(=O)[C@@H](NC(=O)[C@@H](NC(=O)[C@H](CCCCN)NC(=O)[C@H](C)NC(=O)[C@H](CCCCN)NC(=O)[C@H](CC(=O)O)NC(=O)[C@@H](NC(=O)[C@H](CC(C)C)NC(=O)[C@H](CCCNC(=N)N)NC(=O)[C@H](CCCCN)NC(=O)[C@H](Cc1ccc(O)cc1)NC(=O)[C@H](Cc1ccccc1)NC(=O)[C@H](CC(=O)O)NC(=O)[C@H](CO)NC(=O)[C@@H](NC(=O)CNC(=O)[C@H](Cc1ccc(O)cc1)NC(=O)[C@H](CO)NC(=O)[C@H](CC(=O)O)NC(=O)[C@H](CC(C)C)NC(=O)[C@H](CCC(=O)O)NC(=O)[C@H](C)NC(=O)[C@H](CC(N)=O)NC(=O)[C@H](C)NC(=O)[C@H](C)NC(=O)[C@H](CCC(=O)O)NC(=O)[C@H](CCCCN)NC(=O)[C@H](C)NC(=O)[C@H](CCC(=O)O)NC(=O)[C@H](C)NC(=O)[C@H](CC(C)C)NC(=O)CN)C(C)C)[C@@H](C)CC)[C@@H](C)O)C(C)C)C(C)C)C(=O)N[C@@H](CC(C)C)C(=O)N[C@@H](C)C(=O)N[C@@H](C)C(=O)N[C@@H](CC(C)C)C(=O)N1CCC[C@H]1C(=O)O [PEP07914] | least reactivity | 2 | immunogenicity definition [2]: non-immunogenic |
| CC[C@H](C)[C@H](NC(=O)[C@H](CCC(=O)O)NC(=O)[C@H](CC(=O)O)NC(=O)[C@@H](NC(=O)[C@H](CC(C)C)NC(=O)[C@H](C)NC(=O)[C@H](CCCCN)NC(=O)[C@@H](NC(=O)CNC(=O)[C@H](CCC(=O)O)NC(=O)[C@@H](NC(=O)[C@@H](NC(=O)[C@H](CCCCN)NC(=O)[C@H](C)NC(=O)[C@H](CC(N)=O)NC(=O)[C@H](CC(N)=O)NC(=O)[C@@H](NC(=O)[C@H](CC(C)C)NC(=O)[C@H](CC(N)=O)NC(=O)[C@H](CCCCN)NC(=O)[C@H](Cc1ccc(O)cc1)NC(=O)[C@H](Cc1ccc(O)cc1)NC(=O)[C@H](CC(=O)O)NC(=O)[C@H](CO)NC(=O)[C@@H](NC(=O)CNC(=O)[C@H](Cc1ccc(O)cc1)NC(=O)[C@H](CCCCN)NC(=O)[C@H](CC(=O)O)NC(=O)[C@H](CC(C)C)NC(=O)[C@H](CCC(=O)O)NC(=O)[C@H](CCCNC(=N)N)NC(=O)[C@H](CC(N)=O)NC(=O)[C@H](C)NC(=O)[C@H](CC(C)C)NC(=O)[C@@H](NC(=O)[C@H](CCCCN)NC(=O)[C@H](C)NC(=O)[C@H](CCC(=O)O)NC(=O)[C@H](C)NC(=O)[C@H](CC(C)C)NC(=O)CN)C(C)C)C(C)C)[C@@H](C)CC)[C@@H](C)O)C(C)C)C(C)C)[C@@H](C)CC)C(=O)N[C@@H](CC(C)C)C(=O)N[C@@H](C)C(=O)N[C@@H](C)C(=O)N[C@@H](CC(C)C)C(=O)N1CCC[C@H]1C(=O)O [PEP07913, reference compound] | highest |  |  |
| HGEGTFTSDLSKQLEEEAVRLFIEWLKNGGPSSGAPPKSTGGGGSASGSLAEAKEAANAELDSYGVSDFYKRLIDKAKTVEGVEALKDAILAALP [Cmpd 6] |  |  | Percent glucose lowering compared to vehicle [3]: −22% |
| CC[C@H](C)[C@H](NC(=O)[C@H](Cc1c[nH]cn1)NC(=O)[C@H](CC(C)C)NC(=O)[C@H](CCCCN)NC(=O)[C@H](CC(C)C)NC(=O)[C@H](C)NC(=O)[C@H](CCC(=O)O)NC(=O)[C@@H](NC(=O)CNC(=O)[C@H](CCC(=O)O)NC(=O)[C@@H](NC(=O)[C@@H](NC(=O)[C@H](CCCCN)NC(=O)[C@H](C)NC(=O)[C@H](CCCCN)NC(=O)[C@H](CC(N)=O)NC(=O)[C@@H](NC(=O)[C@H](CC(C)C)NC(=O)[C@H](CCCNC(=N)N)NC(=O)[C@H](CCCCN)NC(=O)[C@H](Cc1ccc(O)cc1)NC(=O)[C@H](Cc1ccccc1)NC(=O)[C@H](CC(=O)O)NC(=O)[C@H](CO)NC(=O)[C@@H](NC(=O)CNC(=O)[C@H](Cc1ccc(O)cc1)NC(=O)[C@H](CCCCN)NC(=O)[C@H](CC(=O)O)NC(=O)[C@H](CC(C)C)NC(=O)[C@H](CCC(=O)O)NC(=O)[C@H](CCCNC(=N)N)NC(=O)[C@H](CC(N)=O)NC(=O)[C@H](C)NC(=O)[C@H](CC(C)C)NC(=O)[C@@H](NC(=O)[C@H](CCCCN)NC(=O)[C@H](C)NC(=O)[C@H](CCC(=O)O)NC(=O)[C@H](C)NC(=O)[C@H](CC(C)C)NC(=O)[C@H](CO)NC(=O)[C@H](CO)NC(=O)CN)C(C)C)C(C)C)[C@@H](C)CC)[C@@H](C)O)C(C)C)C(C)C)C(=O)N[C@@H](CC(C)C)C(=O)N[C@@H](C)C(=O)N[C@@H](C)C(=O)N[C@@H](CC(C)C)C(=O)N1CCC[C@H]1C(=O)O [PEP06923, reference compound] |  |  | reactivity with serum IgG (average OD-value and percentage of serum with IgG binding) ([1]; 126 positive human sera, diluted 50 times): highest |
| CC[C@H](C)[C@H](NC(=O)[C@H](C)NC(=O)[C@H](CC(=O)O)NC(=O)[C@H](CCCCN)NC(=O)[C@H](CC(C)C)NC(=O)[C@H](C)NC(=O)[C@H](CCC(=O)O)NC(=O)[C@@H](NC(=O)CNC(=O)[C@H](CCC(=O)O)NC(=O)[C@@H](NC(=O)[C@@H](NC(=O)[C@H](CCCCN)NC(=O)[C@H](C)NC(=O)[C@H](CCCCN)NC(=O)[C@H](CC(=O)O)NC(=O)[C@@H](NC(=O)[C@H](CC(C)C)NC(=O)[C@H](CCCNC(=N)N)NC(=O)[C@H](CCCCN)NC(=O)[C@H](Cc1ccc(O)cc1)NC(=O)[C@H](Cc1ccccc1)NC(=O)[C@H](CC(=O)O)NC(=O)[C@H](CO)NC(=O)[C@@H](NC(=O)CNC(=O)[C@H](Cc1ccc(O)cc1)NC(=O)[C@H](CSC1CC(=O)N(CCNC(=O)CN2CCN(CC(=O)O)CCN(CC(=O)O)CCN(CC(=O)O)CC2)C1=O)NC(=O)[C@H](CC(=O)O)NC(=O)[C@H](CC(C)C)NC(=O)[C@H](CCC(=O)O)NC(=O)[C@H](C)NC(=O)[C@H](CC(N)=O)NC(=O)[C@H](C)NC(=O)[C@H](C)NC(=O)[C@H](CCC(=O)O)NC(=O)[C@H](CCCCN)NC(=O)[C@H](C)NC(=O)[C@H](CO)NC(=O)[C@H](C)NC(=O)[C@H](CC(C)C)NC(=O)CN)C(C)C)[C@@H](C)CC)[C@@H](C)O)C(C)C)C(C)C)C(=O)N[C@@H](CC(C)C)C(=O)N[C@@H](C)C(=O)N[C@@H](C)C(=O)N[C@@H](CC(C)C)C(=O)N1CCC[C@H]1C(=O)O (stereo partly shown) [PEP07968] | least reactivity | 1 | immunogenicity definition [2]: non-immunogenic |
| CC[C@H](C)[C@H](NC(=O)[C@H](C)NC(=O)[C@H](CC(=O)O)NC(=O)[C@H](CCCCN)NC(=O)[C@H](CC(C)C)NC(=O)[C@H](C)NC(=O)[C@H](CCC(=O)O)NC(=O)[C@@H](NC(=O)CNC(=O)[C@H](CCC(=O)O)NC(=O)[C@@H](NC(=O)[C@@H](NC(=O)[C@H](CCCCN)NC(=O)[C@H](C)NC(=O)[C@H](CCCCN)NC(=O)[C@H](CC(=O)O)NC(=O)[C@@H](NC(=O)[C@H](CC(C)C)NC(=O)[C@H](CCCNC(=N)N)NC(=O)[C@H](CCCCN)NC(=O)[C@H](Cc1ccc(O)cc1)NC(=O)[C@H](Cc1ccccc1)NC(=O)[C@H](CC(=O)O)NC(=O)[C@H](CO)NC(=O)[C@@H](NC(=O)CNC(=O)[C@H](Cc1ccc(O)cc1)NC(=O)[C@H](CO)NC(=O)[C@H](CC(=O)O)NC(=O)[C@H](CC(C)C)NC(=O)[C@H](CCC(=O)O)NC(=O)[C@H](C)NC(=O)[C@H](CC(N)=O)NC(=O)[C@H](C)NC(=O)[C@H](C)NC(=O)[C@H](CCC(=O)O)NC(=O)[C@H](CCCCN)NC(=O)[C@H](C)NC(=O)[C@H](CCC(=O)O)NC(=O)[C@H](C)NC(=O)[C@H](CC(C)C)NC(=O)[C@H](CO)NC(=O)CN)C(C)C)[C@@H](C)CC)[C@@H](C)O)C(C)C)C(C)C)C(=O)N[C@@H](CC(C)C)C(=O)N[C@@H](C)C(=O)N[C@@H](C)C(=O)N[C@@H](CC(C)C)C(=O)N1CCC[C@H]1C(=O)O [PEP07986] |  |  | severity score for cytoplasmic vacuolation of renal cortical tubular epithelial cells ([4]; mouse, in vivo, sc): 0 |
| Keyhole Limpet Hemocyanin [KLH, reference compound] |  | 51 |  |
| HGEGTFTSDLSKQLEEEAVRLFIEWLKQGGPSKEIISTGGGGSASGSLAEAKEAANAELDSYGVSDFYKRLIDKAKTVEGVEALKDAILAALP [Cmpd 5] |  |  | severity score for cytoplasmic vacuolation of renal cortical tubular epithelial cells ([4]; subcutaneous on days 0-6, sacrificed on day 7, C57BL6 female mice): 0 |
